Experimental data as given in the supplement of paper PMC10567573.

B1: TBX6 (parent)
chain: AFLELPHGSGGSGYPAAPPAVPFA

Variants of: B1
Test: protein stability index of a GFP-peptide fusion (GPS, HEK-293T) (PSI 1-6); higher = more stable
Conditions: c terminus: a fixed tail appended
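Also: lentivirally expressed fusions sorted by FACS into six bins by GFP to DsRed ratio, PSI derived from sequencing read proportions per bin multiplied by bin number.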

Protein stability index of substitutions, site by site:
A16: R 2.29, L 2.32, K 2.99, Y 2.46, E 3.49, F 2.18, M 2.17, N 2.43, T 2.63, G 2.09, W 1.94, S 2.22, C 1.61, V 2.19, D 2.09, H 2.21, I 2.24, Q 2.77
A20: N 2.69, S 2.52, I 2.11, H 2.38, V 1.84, R 2.56, D 3.49, L 2.21, K 2.85, E 2.87, C 2.68, M 2.35, G 2.73, W 2.46, F 2.4, T 2.42, Q 2.99, Y 2.03
H7: T 2.41, Y 2.34, D 2.9, S 2.4, Q 2.4, V 2.45, M 2.1, W 1.56, L 1.97, A 2.29, K 2.69, C 2.12, R 2.67, G 2.74, P 2.78, N 2.2, I 2.39, E 2.83, F 1.85
P18: V 2.01, Q 2.22, I 2.29, E 3.32, C 2.4, D 2.61, W 2.03, N 2.19, K 2.4, H 2.23, L 2.44, A 1.94, Y 2.06, S 2.55, M 2.56, F 1.96, G 2.39, R 2.17, T 2.41
P15: H 1.93, D 2.81, I 2.01, C 1.8, N 2.48, Y 2.23, V 2.08, L 1.94, E 3.03, T 2.56, A 2.27, W 1.99, G 2.21, F 1.54, S 2.38, K 2.15, M 1.77, R 1.88, Q 2.01
P22: A 2.14, E 2.54, D 3.29, C 2.1
G13: A 2.87, M 2.07, C 2.83, E 2.61, V 2.42, L 1.83, F 2.21, W 1.73, N 2.4, Y 1.66, K 2.58, H 2.23, S 2.44, R 2.22, I 2.51, D 3.02, Q 2.89, T 2.52
L5: I 2.43, Q 2.83, H 2.9, A 2.79, S 2.8, Y 2.39, V 2.59, F 2.29, M 2.69, T 2.61, N 2.74, D 2.81, W 2.32, E 2.83, K 2.59, G 3.25, P 3.17, C 2.51, R 2.71
G11: F 2.19, R 2.3, S 2.7, T 2.11, I 2.23, N 2.07, V 2.12, Y 1.95, A 2.5, Q 2.2, P 2.28, W 2.32, E 2.77, M 2.01, H 2.15, L 1.93, K 2.07, D 2.89, C 1.9
V21: D 3.46, N 2.64, L 2.58, C 2.09, M 2.36, K 3.23, W 2.07, F 1.97, S 2.59, G 3.31, R 2.64, Y 2.12, E 3.02
P19: F 1.59, V 2.13, L 2.25, M 2.19, Y 1.48, S 2.13, I 2.27, G 2.38, N 2.06, T 2.37, K 2.07, H 2.23, E 2.78, R 2.17, D 2.56, A 2.72, C 2.05, W 2.83, Q 2.47
S12: T 2.4, V 2.55, A 2.33, C 2.12, Q 2.29, G 2.31, M 2, H 2.22, N 2.62, K 2.17, Y 1.63, I 2.28, W 2.55, F 1.91, R 2.27, P 2.08, L 2.18, D 3, E 2.74
G10: L 2.22, V 2.2, W 1.25, T 2.1, R 2.07, S 2.7, K 2.01, M 2.3, P 2.44, D 2.67, I 2.55, C 2.55, N 2.42, Q 2.08, A 2.24, Y 1.9, F 2.36, H 2.34, E 2.96
A17: E 2.97, Q 2.54, R 2.37, L 2.57, V 2.62, G 2.03, T 2.58, F 1.99, D 2.85, S 2.46, N 2.22, Y 2.36, M 2.17, C 2.61, I 2.65, W 2.02, K 2.4
S9: M 1.9, K 1.94, E 2.58, N 2.61, A 3.21, Y 2.21, R 2.68, I 2.12, H 2.02, C 1.96, W 2.31, G 2.41, D 2.6, L 1.93, T 2.1, P 2.61, V 2.17, Q 2.63, F 1.45
E4: T 2.03, F 1.4, D 2.42, Q 1.93, P 3.3, N 2.09, G 2.13, H 2.12, A 2.24, R 1.76, L 2.21, Y 2.2, S 2.19, C 2.17, V 1.9, K 1.68, M 1.56, I 3.55
P6: G 1.62, H 1.95, W 2.9, C 1.34, S 2.47, N 2.14, L 2.4, F 2.09, E 2.62, D 2.31, M 2.29, R 1.53, T 2.21, K 2.37, I 2.85, A 1.64, Q 2, Y 2.36
G8: P 2.21, Y 1.97, C 2.19, V 1.68, W 1.93, T 2.27, A 2.86, L 1.96, R 2.1, D 2.75, I 1.88, M 2.57, Q 2.02, K 2.42, E 3.31, S 2.71, N 2.53, F 1.71, H 2.27
L3: Y 2.08, W 3.01
Y14: M 2.84, G 3.04, C 2.99, F 2.77, H 2.5, S 3.25, I 2.65, V 2.73, K 2.78, A 3.1, D 3.33, W 2.21, T 3.48, L 2.85, R 3.03, E 3.8, N 3.54, Q 3.06
